# Laboratory results as given in patent publication US20230140200A1, “COMPOSITIONS AND METHODS FOR DETECTING CELLS UNDERGOING FERROPTOSIS USING AN ANTIBODY” (THE TRUSTEES OF COLUMBIA UNIVERSITY IN THE CITY OF NEW YORK, priority 2020, published 2023).
# Entries after “also recorded” stand apart in the source; their conditions may differ.
# What was measured:
# mouse TfR1 = target: T1, mouse TfR1 (Mus musculus, UniProt Q62351); assay: Staining of mouse glioblastoma paraffin-embedded tissue; settings: paraffin-embedded GBM tissue
# T1 construct: We evaluated 3F3-FMA staining in mouse glioblastoma (GBM) paraffin-embedded tissue samples; from tissue; host or cells: mouse glioblastoma (murine glioma model, c57/B6 mice), paraffin-embedded brain sections
# Method: All procedures were performed according to the Columbia University Medical Center Institutional Animal Care and Use Committee. Murine glioma cell lines were created from tumor bearing mice. These tumors were generated by injection of a PDGF-IRES-Cre retrovirus into the subcortical white matter of mice with floxed PTEN and/or p53 (Sonabend et al., 2013). After mice reached end stage, the tumors were dissociated and primary cell cultures were created. These cells harbored the specific mutations of the original tumors, and could be re-injected to form gliomas in c57/B6 mice with high fidelity. Briefly, mice between the ages of 6-8 weeks received 50,000 murine glioma cells through stereotactic injection after being anesthetized with a ketamine/xylazine cocktail (87.5 mg/12.5 mg w/w). After cessation of toe-pinch reflex, the scalp was shaved and cleaned with serial use of betadine and 70% ethanol swabs. An incision was made and the skull was exposed. A burr hole was created, 2 mm anterior, 2 mm lateral and 2 mm deep to the right of the bregma. The cells were injected into the subcortical white matter over a period of 3 minutes (0.333 μL/min). Once the injection ceased, the needle was left in place for 1 minute before being slowly withdrawn. After tumor developed, brains were harvested and fixed in 4% paraformaldehyde and embedded in paraffin. 5 micron sections were made for staining.
# HT-1080 cells = assay: Immunofluorescence staining of treated cells, quantification of membrane intensity; assay type: cell-based, human
# [1] = test system: HCC mouse xenograft tumor tissue (Huh-7 cells); assay: Staining of hepatocellular carcinoma (HCC) mouse xenograft tumor tissue sections; settings: 50 mg/kg IKE once daily IP for 2 days
# Method: Tumor tissues were fixed in 4% paraformaldehyde (PFA) for 24 h at 4° C. followed by washing with PBS three times. The tissues were perfused in 30% sucrose for 24 h at 4° C. for cryo-protection. The samples were embedded in OCT cryostat sectioning medium, and then moved directly into a cryostat. After equilibration of temperature, frozen tumor tissues were cut into 5 μm thick sections. Tissue sections were mounted on to poly-L-lysine coated slides by placing the cold sections onto warm slides. Slides were stored at −80° C. until staining. For staining, slides were warmed to room temperature followed by washing with PBS twice. A hydrophobic barrier pen was used to draw a circle on each slide. The slides were permeabilized with PBS with 0.4% Triton X-100 (PBT) twice before non-specific-binding blocking by incubating the sections with 10% goat serum (ThermoFisher 50197Z) for 30 min at room temperature. […] All images were captured on a Zeiss LSM 800 confocal microscope at Plan-Apochromat 63×/1.40 Oil DIC objective with constant laser intensity for all analyzed samples. The intensity above threshold of the fluorescent signal of the bound antibodies was analyzed using NIH ImageJ software (ImageJ, RRID:SCR_003070). Data were expressed as fold change comparing with the vehicle. […]
# T1 sequence (Q62351 whole entry): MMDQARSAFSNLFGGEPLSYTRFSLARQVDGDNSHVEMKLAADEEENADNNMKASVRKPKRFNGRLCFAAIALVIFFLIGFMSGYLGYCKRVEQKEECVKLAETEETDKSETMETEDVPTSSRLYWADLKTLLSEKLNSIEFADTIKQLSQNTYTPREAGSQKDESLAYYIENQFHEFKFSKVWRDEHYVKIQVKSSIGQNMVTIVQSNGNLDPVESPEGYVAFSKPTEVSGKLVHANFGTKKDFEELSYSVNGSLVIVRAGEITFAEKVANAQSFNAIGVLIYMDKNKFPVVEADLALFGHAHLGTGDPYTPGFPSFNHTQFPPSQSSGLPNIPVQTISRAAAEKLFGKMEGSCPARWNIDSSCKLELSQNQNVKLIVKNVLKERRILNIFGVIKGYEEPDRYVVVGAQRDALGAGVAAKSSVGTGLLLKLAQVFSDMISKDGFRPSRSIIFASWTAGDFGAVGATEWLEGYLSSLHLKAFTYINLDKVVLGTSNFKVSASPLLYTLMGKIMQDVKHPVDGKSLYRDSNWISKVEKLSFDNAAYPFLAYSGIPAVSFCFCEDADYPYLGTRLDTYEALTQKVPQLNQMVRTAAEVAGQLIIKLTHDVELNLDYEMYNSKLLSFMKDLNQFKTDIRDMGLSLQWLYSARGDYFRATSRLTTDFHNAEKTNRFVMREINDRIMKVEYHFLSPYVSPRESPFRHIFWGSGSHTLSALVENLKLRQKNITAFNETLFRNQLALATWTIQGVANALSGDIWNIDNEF
molecule,measurement,setting,value
"3F3-FMA: Murine monoclonal IgG1 raised against ferroptotic membrane fractions; antigen is transferrin receptor protein 1 (TfR1) (antibody, V domains shown) VH: EVLLQQSGTELVRPGALVKLSCKASGFNIQDLYIHWVKQRPEQGLEWIGWIDPETDNTIYDPKFQGKASITADTSSNTAYLQLSSLTSEDTAMYYCSTGLLQWYFDVWGAGTAVTVSS VL: DIVMTQSPSSLAMSIGQKVTMRCKSSQSLLNSYNQKNCLAWYQQKPGQSPKLLLYFVSTRESGVPDRFIGSGSGTDFTLTISSVQAEDLADYFCQQHYSTPLTFGAGTKLELK",recognition of TfR1 in tumor samples,mouse TfR1,able to recognize mouse TfR1 protein
same,co-localization with GM130 (Golgi marker),"HT-1080 cells; 1 μM RSL3, 4 h",located in the Golgi
same,co-localization with Tom20 (mitochondria) and PDI (ER) markers,"HT-1080 cells; 1 μM RSL3, 4 h",not visible in mitochondria or the ER
same,antibody staining / membrane intensity in RSL3-induced ferroptosis,"HT-1080 cells; 1 μM RSL3, 4 h, vs DMSO",stained cell boundaries and the inside puncta became brighter
same,antibody staining on cell surface in STS-induced apoptosis,"HT-1080 cells; 1 μM STS, 6 h",wasn't detected
same,antibody membrane intensity in camptothecin-induced apoptosis,"HT-1080 cells; 2 μM camptothecin, 24 h",no significant increase
same,antibody membrane intensities in H2O2-treated cells,"HT-1080 cells; 1 mM H2O2, 4 h",didn't observe increased membrane intensities
same,antibody staining intensity in IKE-treated vs vehicle tumor tissue,[1],increased intensities; also recorded: difference in intensities
